Target: human high affinity receptor for IL2 (IL2R) (human) (UniProt P01589)
Assay: cell-based or functional assay

Chain of UniProt P01589 (P01589 22-272, chain 1 of 3): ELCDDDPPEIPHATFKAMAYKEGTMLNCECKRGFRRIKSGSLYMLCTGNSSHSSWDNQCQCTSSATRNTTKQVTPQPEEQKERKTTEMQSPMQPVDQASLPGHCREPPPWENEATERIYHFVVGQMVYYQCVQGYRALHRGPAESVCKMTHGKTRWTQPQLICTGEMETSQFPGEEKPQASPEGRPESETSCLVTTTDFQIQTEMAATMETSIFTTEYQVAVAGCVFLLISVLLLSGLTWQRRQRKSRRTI
Chain of UniProt P01589 (P14784 27-551, chain 2 of 3, further chain): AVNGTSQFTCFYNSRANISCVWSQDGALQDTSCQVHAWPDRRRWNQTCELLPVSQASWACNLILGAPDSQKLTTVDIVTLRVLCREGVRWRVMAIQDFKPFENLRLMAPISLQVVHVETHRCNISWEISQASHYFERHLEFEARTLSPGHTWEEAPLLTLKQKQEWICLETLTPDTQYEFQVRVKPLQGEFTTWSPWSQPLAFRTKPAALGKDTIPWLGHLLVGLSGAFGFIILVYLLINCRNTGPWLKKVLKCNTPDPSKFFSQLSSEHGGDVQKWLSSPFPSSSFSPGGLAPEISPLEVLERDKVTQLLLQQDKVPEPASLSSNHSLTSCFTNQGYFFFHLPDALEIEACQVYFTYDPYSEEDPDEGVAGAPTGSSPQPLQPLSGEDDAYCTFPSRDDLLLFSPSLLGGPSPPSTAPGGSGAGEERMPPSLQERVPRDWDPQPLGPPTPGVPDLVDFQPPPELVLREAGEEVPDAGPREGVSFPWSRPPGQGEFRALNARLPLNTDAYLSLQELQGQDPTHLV
Chain of UniProt P01589 (P31785 23-369, chain 3 of 3, further chain): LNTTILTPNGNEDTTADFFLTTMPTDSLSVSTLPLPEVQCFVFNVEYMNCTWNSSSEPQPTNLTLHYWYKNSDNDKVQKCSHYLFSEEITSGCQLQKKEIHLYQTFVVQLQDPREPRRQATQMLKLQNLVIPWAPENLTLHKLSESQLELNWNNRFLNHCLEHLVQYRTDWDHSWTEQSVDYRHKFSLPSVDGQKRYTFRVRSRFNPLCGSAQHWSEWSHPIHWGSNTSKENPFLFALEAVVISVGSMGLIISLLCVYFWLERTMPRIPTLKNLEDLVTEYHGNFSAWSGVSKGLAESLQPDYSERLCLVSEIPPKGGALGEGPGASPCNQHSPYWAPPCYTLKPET

M1, fresh lymphocytes analyzed by FACS, IL2-Bax 1 µg (Experiment No. 1): 17.5
M1, fresh lymphocytes analyzed by FACS, IL2-Bax 5 µg (Experiment No. 1): 24.3
M1, fresh lymphocytes analyzed by FACS, IL2-Bax 10 µg (Experiment No. 1): 42.1
M1 - 2, fresh lymphocytes analyzed by FACS, IL2-Bax 1 µg (Experiment No. 1): 13.5
M1 - 2, fresh lymphocytes analyzed by FACS, IL2-Bax 5 µg (Experiment No. 1): 20
M1 - 2, fresh lymphocytes analyzed by FACS, IL2-Bax 10 µg (Experiment No. 1): 35
M2, fresh lymphocytes analyzed by FACS, IL2-Bax 1 µg (Experiment No. 1): 4
M2, fresh lymphocytes analyzed by FACS, IL2-Bax 5 µg (Experiment No. 1): 4.3
M2, fresh lymphocytes analyzed by FACS, IL2-Bax 10 µg (Experiment No. 1): 9.1
UL + UR, fresh lymphocytes analyzed by FACS, IL2-Bax 1 µg (Experiment No. 2): 10.5
UL + UR, fresh lymphocytes analyzed by FACS, IL2-Bax 10 µg (Experiment No. 2): 31.6
UL, fresh lymphocytes analyzed by FACS, IL2-Bax 1 µg (Experiment No. 2): 4.98
UL, fresh lymphocytes analyzed by FACS, IL2-Bax 10 µg (Experiment No. 2): 14.7
UR, fresh lymphocytes analyzed by FACS, IL2-Bax 1 µg (Experiment No. 2): 5.56
UR, fresh lymphocytes analyzed by FACS, IL2-Bax 10 µg (Experiment No. 2): 16.8
apoptotic cells in fresh human lymphocytes treated with IL2-Bax (FACS): 2 to 14%
increase in the percentage of the apoptotic-cell population (sub-G1, FACS), HUT102 cells, highest concentration tested: 3.6 fold
Substance: IL2-Bax chimeric protein
